Legend:
human UBR4 (human) = human UBR4 (human) (UniProt Q5T4S7); assay: mass photometry; isolated human UBR4/KCMF1/CALM1 complex, co-expressed in insect cells and purified via a tag on UBR4
[1] = target: C. elegans UBR4 (C. elegans); assay: not stated; molecular weight of the purified C. elegans UBR4 complex (Fig. S13A)

Chain of human UBR4, Q5T4S7 1-5183 (enzyme) (Q5T4S7 whole entry): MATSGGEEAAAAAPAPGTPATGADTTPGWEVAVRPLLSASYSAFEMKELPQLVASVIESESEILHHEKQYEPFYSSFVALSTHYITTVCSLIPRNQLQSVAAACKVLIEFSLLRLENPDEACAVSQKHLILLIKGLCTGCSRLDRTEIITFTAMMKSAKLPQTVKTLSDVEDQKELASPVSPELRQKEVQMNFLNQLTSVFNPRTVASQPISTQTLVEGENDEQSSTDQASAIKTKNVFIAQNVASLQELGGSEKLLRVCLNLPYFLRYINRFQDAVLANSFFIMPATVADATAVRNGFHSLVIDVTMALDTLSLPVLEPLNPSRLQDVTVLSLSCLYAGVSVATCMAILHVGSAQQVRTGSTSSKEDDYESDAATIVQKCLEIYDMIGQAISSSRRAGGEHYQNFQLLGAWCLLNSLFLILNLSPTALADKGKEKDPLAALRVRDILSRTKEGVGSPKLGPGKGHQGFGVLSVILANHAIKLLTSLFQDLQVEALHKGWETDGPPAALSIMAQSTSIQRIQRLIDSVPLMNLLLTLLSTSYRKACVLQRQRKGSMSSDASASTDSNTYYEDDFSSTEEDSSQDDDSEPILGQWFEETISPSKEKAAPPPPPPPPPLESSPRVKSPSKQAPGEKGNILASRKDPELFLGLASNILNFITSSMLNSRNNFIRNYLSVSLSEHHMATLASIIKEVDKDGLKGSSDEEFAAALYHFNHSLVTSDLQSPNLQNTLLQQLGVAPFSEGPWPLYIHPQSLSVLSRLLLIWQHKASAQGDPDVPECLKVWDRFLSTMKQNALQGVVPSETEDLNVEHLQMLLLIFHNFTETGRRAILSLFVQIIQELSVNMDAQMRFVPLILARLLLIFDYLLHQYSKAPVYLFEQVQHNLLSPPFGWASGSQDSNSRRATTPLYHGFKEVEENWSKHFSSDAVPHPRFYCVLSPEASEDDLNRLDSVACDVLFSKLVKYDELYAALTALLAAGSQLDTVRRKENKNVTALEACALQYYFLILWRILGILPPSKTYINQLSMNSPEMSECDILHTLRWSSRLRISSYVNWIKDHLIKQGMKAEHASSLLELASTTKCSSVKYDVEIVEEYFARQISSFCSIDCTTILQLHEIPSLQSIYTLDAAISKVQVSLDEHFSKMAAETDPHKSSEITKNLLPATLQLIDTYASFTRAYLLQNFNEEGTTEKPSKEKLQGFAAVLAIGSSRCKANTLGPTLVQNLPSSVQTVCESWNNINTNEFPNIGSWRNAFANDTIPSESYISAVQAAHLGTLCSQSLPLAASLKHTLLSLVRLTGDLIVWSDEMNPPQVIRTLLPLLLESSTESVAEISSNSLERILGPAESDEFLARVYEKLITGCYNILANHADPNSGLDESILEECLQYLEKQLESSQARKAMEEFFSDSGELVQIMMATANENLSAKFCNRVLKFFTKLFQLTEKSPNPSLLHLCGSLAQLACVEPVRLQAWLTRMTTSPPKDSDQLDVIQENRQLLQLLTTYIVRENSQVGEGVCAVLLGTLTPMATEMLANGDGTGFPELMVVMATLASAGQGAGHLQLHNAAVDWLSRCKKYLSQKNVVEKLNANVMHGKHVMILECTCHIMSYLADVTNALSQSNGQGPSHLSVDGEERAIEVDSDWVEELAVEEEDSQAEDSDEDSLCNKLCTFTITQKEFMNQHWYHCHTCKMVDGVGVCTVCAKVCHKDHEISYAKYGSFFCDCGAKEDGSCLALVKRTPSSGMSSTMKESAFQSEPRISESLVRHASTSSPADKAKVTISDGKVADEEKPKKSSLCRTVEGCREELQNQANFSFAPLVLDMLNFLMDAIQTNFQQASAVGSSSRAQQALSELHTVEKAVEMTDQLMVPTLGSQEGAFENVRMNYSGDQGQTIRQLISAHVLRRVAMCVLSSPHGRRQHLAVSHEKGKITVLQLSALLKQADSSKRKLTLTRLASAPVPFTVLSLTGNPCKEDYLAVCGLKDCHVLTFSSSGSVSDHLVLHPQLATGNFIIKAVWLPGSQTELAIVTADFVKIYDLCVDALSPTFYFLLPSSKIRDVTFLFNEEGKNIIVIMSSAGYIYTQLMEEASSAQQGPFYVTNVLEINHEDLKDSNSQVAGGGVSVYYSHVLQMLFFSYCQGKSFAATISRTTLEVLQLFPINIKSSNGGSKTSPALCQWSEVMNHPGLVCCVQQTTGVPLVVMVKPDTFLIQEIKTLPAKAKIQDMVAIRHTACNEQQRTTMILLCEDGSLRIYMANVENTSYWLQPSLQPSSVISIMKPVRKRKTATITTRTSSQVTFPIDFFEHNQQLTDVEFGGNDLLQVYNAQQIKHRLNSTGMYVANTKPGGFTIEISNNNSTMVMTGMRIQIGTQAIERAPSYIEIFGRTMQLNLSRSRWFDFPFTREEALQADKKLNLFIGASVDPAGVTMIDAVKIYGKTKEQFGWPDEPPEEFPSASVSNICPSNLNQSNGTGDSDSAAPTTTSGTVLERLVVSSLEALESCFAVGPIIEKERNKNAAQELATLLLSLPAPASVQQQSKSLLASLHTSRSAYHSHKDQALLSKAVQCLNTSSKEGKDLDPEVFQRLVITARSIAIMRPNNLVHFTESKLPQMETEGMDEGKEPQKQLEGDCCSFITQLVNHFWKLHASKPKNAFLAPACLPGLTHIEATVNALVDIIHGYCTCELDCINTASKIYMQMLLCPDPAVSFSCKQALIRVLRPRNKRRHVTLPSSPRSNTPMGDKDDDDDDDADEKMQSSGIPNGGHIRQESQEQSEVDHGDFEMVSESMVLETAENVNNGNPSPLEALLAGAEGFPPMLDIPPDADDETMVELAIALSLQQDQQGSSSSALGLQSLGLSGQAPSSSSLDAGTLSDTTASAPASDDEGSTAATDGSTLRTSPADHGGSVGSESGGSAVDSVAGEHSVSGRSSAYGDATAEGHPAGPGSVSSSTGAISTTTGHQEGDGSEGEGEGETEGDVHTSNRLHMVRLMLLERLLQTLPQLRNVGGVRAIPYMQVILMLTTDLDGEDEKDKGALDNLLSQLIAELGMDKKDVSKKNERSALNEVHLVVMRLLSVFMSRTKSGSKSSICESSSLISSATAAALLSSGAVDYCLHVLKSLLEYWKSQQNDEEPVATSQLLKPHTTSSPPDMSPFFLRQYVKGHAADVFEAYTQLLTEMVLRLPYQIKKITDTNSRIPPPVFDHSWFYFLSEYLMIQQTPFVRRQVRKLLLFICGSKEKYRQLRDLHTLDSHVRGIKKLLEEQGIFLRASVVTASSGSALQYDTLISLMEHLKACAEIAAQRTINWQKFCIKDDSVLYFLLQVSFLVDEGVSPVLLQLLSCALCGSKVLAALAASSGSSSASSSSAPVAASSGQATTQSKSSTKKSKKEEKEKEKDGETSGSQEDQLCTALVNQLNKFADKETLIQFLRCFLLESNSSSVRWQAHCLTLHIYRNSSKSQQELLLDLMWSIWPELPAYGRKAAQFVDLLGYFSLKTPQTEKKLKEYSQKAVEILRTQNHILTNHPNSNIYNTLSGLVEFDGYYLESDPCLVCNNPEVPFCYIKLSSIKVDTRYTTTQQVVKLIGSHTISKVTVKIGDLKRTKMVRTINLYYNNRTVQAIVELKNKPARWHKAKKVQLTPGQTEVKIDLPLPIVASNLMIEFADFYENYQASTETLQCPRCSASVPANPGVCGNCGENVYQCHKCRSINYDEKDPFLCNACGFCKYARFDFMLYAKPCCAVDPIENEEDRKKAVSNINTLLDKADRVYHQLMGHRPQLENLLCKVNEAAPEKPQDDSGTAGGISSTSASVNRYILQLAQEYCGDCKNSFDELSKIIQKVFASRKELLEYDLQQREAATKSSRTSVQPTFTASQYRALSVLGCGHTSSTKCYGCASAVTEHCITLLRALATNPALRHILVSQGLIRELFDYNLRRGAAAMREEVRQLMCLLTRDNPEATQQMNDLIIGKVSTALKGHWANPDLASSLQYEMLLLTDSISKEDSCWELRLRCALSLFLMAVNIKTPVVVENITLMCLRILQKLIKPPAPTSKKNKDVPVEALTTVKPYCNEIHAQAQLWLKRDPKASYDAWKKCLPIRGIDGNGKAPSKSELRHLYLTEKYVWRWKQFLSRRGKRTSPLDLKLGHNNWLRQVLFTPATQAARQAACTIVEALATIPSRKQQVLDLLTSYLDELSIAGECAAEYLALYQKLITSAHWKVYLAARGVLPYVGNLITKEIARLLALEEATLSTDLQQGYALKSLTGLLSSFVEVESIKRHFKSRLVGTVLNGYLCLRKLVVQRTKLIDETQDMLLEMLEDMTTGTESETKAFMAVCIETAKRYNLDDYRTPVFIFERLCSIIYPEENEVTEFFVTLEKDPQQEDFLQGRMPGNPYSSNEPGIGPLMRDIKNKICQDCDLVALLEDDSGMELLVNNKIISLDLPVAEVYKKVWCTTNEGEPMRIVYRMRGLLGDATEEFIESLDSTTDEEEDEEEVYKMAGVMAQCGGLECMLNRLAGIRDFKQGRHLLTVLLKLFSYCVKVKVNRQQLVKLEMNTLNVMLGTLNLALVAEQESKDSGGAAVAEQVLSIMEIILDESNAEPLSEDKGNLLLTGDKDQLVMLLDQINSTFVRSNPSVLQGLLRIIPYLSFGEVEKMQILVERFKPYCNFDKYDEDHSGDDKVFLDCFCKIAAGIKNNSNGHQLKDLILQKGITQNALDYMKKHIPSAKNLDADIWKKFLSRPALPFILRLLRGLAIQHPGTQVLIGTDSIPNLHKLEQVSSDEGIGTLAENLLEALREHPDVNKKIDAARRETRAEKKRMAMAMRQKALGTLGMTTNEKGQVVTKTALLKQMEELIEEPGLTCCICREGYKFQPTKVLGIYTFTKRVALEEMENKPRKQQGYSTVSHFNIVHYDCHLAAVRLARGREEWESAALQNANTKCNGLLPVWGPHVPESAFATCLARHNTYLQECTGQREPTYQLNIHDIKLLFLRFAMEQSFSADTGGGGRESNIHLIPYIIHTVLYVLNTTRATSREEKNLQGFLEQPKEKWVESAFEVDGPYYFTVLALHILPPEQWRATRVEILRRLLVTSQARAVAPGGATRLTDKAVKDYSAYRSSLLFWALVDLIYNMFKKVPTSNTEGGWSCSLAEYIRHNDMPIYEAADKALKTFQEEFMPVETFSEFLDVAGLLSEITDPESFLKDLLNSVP

## human UBR4, Q5T4S7 1-5183 (enzyme)
Human UBR4 (human)
  stoichiometry N: 2

## C. elegans UBR4, A0A0S4XR36 1-4218
[1]
  stoichiometry N: 2
